Columns and labels:
αENaC = target: T1, αENaC (Homo sapiens, UniProt P37088); experiment: Texas red-SPLUNC1 binding assay on JME cells expressing yfp-αENaC; design: expressed in transfected cells; host or cells: JME nasal epithelial cells that no longer express ENaC, lentivirus pQCXIN; conditions: Texas red-rSPLUNC1, 30 min, polarized JME cells with yfp-αENaC; Hill fit
T1 sequence (P37088 1-669): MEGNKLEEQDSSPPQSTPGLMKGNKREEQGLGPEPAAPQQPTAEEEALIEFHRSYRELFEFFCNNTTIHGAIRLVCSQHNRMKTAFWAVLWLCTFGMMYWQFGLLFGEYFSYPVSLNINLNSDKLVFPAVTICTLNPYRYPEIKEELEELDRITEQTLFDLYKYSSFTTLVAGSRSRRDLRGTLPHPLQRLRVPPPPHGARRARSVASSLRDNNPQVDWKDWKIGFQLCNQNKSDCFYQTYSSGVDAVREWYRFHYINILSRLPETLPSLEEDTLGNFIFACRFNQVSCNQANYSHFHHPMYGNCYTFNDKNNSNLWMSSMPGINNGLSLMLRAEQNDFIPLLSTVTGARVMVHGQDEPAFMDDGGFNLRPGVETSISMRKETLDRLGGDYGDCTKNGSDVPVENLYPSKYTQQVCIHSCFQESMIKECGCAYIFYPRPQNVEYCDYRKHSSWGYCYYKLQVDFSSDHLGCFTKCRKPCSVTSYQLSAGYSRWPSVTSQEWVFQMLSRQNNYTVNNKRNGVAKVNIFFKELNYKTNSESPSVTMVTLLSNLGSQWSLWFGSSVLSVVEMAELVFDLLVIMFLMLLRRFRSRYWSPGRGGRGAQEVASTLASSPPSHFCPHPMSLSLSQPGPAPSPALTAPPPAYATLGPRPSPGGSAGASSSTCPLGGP
Experimental: JME cells were incubated with varying concentrations of Texas red-labeled SPLUNC1 for 30 min followed by a 5× wash with PBS. After this time images were acquired with a Nikon Ti-S inverted microscope and were quantified to obtain specific and non-specific binding using Image J. Data were then fitted with a Hill Plot to obtain the Kd.
JME nasal epithelial cells express functional ENaCs (Tong et al., Am. J. Physiol. Lung Cell. Mol. Physiol. 287:L928 (2004)). However, this attribute is lost after several passages. Thus, passaged JME cells that no longer expressed ENaC were stably infected with a lentivirus containing yfp-αENaC or an empty vector as a control and the presence or absence of αENaC was confirmed using an antibody that was constructed “in-house” that was directed against αENaC (FIG. 8).
Recombinant SPLUNC1 was labeled with Texas red according to the manufacturer's instructions (Pierce) and was freshly labeled on the day of each binding experiment. […] After this time yfp (514 nm excitation) and Texas red fluorescence (590 nm excitation) were imaged under a 60× water objective on a Nikon Ti-S inverted microscope equipped with an Orca CCD camera (Hamamatsu) switchable filter wheels (Ludl). Background fluorescence was subtracted from all images and the mean thresholded intensity was quantified to obtain specific and non-specific binding using Image J.

ENaC = target: T2, ENaC (Homo sapiens, UniProt P37088+P51168+P51170); experiment: Transepithelial electrical resistance in human bronchial epithelial cultures; type: cell-based; conditions: 50 ng/ml SPLUNC1 30 min or amiloride 10 min; effects not additive
T2 construct: measured the transepithelial voltage under thin film conditions in human bronchial epithelial cultures; endogenous in cells; host or cells: primary human bronchial epithelial cultures (normal or CF donors)
T2 sequence (P37088 1-669): T1 sequence (P37088 1-669)
T2 sequence (P51168 1-640): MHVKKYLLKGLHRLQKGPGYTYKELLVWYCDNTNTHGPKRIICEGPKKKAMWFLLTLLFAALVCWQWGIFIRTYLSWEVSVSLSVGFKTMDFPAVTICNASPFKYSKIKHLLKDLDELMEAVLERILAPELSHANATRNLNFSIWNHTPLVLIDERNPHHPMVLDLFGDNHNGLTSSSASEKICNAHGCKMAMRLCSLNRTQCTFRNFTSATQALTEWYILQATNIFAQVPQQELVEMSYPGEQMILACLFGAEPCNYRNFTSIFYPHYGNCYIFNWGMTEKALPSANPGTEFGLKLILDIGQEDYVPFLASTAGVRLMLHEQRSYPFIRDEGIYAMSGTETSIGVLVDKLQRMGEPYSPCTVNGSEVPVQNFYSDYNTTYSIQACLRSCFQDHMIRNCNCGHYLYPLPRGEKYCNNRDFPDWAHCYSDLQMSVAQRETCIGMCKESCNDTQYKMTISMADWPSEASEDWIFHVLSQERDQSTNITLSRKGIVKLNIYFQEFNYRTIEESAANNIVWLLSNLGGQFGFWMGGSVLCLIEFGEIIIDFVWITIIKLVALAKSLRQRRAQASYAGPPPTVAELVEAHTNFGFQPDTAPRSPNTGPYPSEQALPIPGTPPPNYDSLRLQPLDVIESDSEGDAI
T2 sequence (P51170 1-649): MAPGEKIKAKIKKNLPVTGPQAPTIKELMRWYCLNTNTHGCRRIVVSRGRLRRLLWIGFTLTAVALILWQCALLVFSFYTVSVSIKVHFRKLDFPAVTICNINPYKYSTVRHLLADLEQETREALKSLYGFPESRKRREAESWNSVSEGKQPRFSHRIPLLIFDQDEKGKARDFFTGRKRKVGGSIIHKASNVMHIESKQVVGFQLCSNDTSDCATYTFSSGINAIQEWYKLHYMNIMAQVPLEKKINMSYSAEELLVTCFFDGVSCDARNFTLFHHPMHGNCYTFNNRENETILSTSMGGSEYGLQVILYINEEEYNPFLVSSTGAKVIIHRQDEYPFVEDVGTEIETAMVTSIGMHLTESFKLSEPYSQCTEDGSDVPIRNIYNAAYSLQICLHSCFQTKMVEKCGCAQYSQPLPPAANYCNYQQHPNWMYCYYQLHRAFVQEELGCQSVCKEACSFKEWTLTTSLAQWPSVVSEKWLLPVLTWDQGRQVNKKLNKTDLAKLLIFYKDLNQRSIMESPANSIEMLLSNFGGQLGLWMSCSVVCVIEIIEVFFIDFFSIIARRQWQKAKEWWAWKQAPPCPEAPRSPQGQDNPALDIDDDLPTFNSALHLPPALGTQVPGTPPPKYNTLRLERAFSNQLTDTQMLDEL
Description: A single-barreled potential difference-sensing electrode was placed in the airway surface liquid by micromanipulator and used in conjunction with a macroelectrode in the serosal solution to measure transepithelial voltage using a voltmeter (World Precision Instruments). […] Transepithelial resistance was routinely measured using the EVOM system (WPI) as previously described ([…] et al., J. Gen. Physiol. 127:591 (2006)).

B1: SPLUNC1: human SPLUNC1 (SEQ ID NO:1), 256 amino acid secreted PLUNC family protein; rSPLUNC1 is the purified V5/6His-tagged recombinant form (protein, listed as Homo sapiens)
chain: MFQTGGLIVFYGLLAQTMAQFGGLPVPLDQTLPLNVNPALPLSPTGLAGSLTNALSNGLLSGGLLGILENLPLLDILKPGGGTSGGLLGGLLGKVTSVIPGLNNIIDIKVTDPQLLELGLVQSPDGHRLYVTIPLGIKLQVNTPLVGASLLRLAVKLDITAEILAVRDKQERIHLVLGDCTHSPGSLQISLLDGLGPLPIQGLLDSLTGILNKVLPELVQGNVCPLVNEVLRGLDITLVHDIVNMLIHGLQFVIKV
modifications: V5/6His tag in recombinant form
notes: rSPLUNC1 is the purified V5/6His-tagged recombinant form
- Kd (αENaC): 0.055 µg/mL
- increase of transepithelial electrical resistance (ENaC): ~33%
